# Assay results: US20250296912A1
# Target: prostate specific antigen (Homo sapiens)
Substance,"IC50 (48 hour exposure), Prostate LnCAP (positive PSA)","IC50 (48 hour exposure), Prostate DuPro (trace PSA)"
Analog 215 (Illudin S-Pro-Ser-Ser-Gln-Chg-Ser-Ser-Hyp-Ac) (peptide),> 20000 nM,
Analog 210 (Ac-Hyp-Ser-Ser-Chg-Gln-Ser-Ser-Pro-O-(CH2)3-acylfulvene) (peptide),810 nM,3500 nM
Analog 216 (Illudin M-Pro-Ser-Ser-Gln-Chg-Ser-Ser-Hyp-Ac) (peptide),190 nM,280 nM
